This passage reports self-cleavage results from the RNAGym collection of RNA variant scans (doi:10.7554/elife.80360).

B1: CPEB3 Ribozyme (parent)
chain: GGGGGCCACAGCAGAAGCGUUCACGUCGCGGCCCCUGUCAGAUUCUGGUGAAUCUGCGAAUUCUGCUGU

The variants in the data set derive from B1. Description: self-cleavage, relative activity (ratio to wild type); higher = more cleavage; co-transcriptional.
C12A C63U: the self-cleavage worked out at 0.364.

Take C12A C63A: the self-cleavage was found to be 0.336.

For the variant C12U U69G, the self-cleavage was 1.05. Turning to C12U U69A, the self-cleavage amounted to 1.02. In the case of C12A G65C, the self-cleavage is 0.841. Turning to C12U C35U, the self-cleavage is 0.947. Turning to C12U C35A, the self-cleavage is 0.275. Consider C12U C35G, for which the self-cleavage amounted to 0.45. In the case of C12U G30U, the self-cleavage was found to be 0.368. As for C12U G30C, the self-cleavage worked out at 0.67. For A13G G28A, the self-cleavage is 0.139. For the variant C12A C33U, the self-cleavage was 0.671. In the case of A13U G41U, the self-cleavage came out at 0.333. On to A13C U62A, for which the self-cleavage is 0.348. Take A13C U62C: the self-cleavage is 0.475.

In the case of C12G A23U, the self-cleavage came to 0.55. In the case of C12G A23G, the self-cleavage came out at 0.721. For the variant C12G A23C, the self-cleavage was determined as 0.628.

Regarding C12G A60U, the self-cleavage came out at 0.367. On to A13C A40G, for which the self-cleavage was 0.738. Then A13U A40U, with 0.265; and A13U A40C, with 0.163. Regarding C12U U67C, the self-cleavage stood at 0.978. As to A13G U69A, the self-cleavage came to 1. Regarding A13U A23C, the self-cleavage was determined as 0.793. For the variant C12A G58A, the self-cleavage was 0.62.

In the case of A13G C35A, the self-cleavage came to 0.167. Consider A13G C35U, for which the self-cleavage was determined as 0.952.

For the variant C12U G14U, the self-cleavage is 0.345. Under C12U G14C stands 0.146. Take A13U C63U: the self-cleavage stood at 0.648.

Turning to A13C G30A, the self-cleavage was 0.497. Regarding A13G U55A, the self-cleavage worked out at 0.722. In the case of A13U U44A, the self-cleavage is 0.659. Turning to A13U G58U, the self-cleavage amounted to 0.911. In the case of A13U G58C, the self-cleavage worked out at 0.788. Under C12G U20C stands 0.119; under A13G G31C, 0.241; under C12U G41A, 0.716. In the case of C12U G41C, the self-cleavage is 0.617. Regarding A13C C57G, the self-cleavage is 0.235. Under A13C C57U stands 0.248; under A13U C32U, 0.862. As to A13C G19C, the self-cleavage came to 0.107. With A13C G19A, the self-cleavage worked out at 0.109. Take C12G U49A: the self-cleavage came out at 0.934.

Turning to C12G U49C, the self-cleavage amounted to 0.827. In the case of C12G C27G, the self-cleavage turned out to be 0.1. C12A G19U: the self-cleavage worked out at 0.111. For C12A G19A, the self-cleavage worked out at 0.142.

A13U C22G: the self-cleavage is 0.148. Take A13U C22A: the self-cleavage amounted to 0.161. For A13U C22U, the self-cleavage was found to be 0.171.

With A13C U46A, the self-cleavage amounted to 0.901. With A13C U46G, the self-cleavage stood at 0.885. Turning to A13U A59U, the self-cleavage is 0.464. Regarding A13C G50A, the self-cleavage came out at 0.913.

Take C12G U62C: the self-cleavage amounted to 0.458. With C12G U62A, the self-cleavage is 0.349.

C12U C29A: the self-cleavage came out at 0.451. For C12U C32U, the self-cleavage is 0.999.

Consider C12A G48U, for which the self-cleavage is 0.8. For the variant A13G C29U, the self-cleavage came to 0.133. A13G U44C: the self-cleavage came to 0.824.

On to A13G U44A, for which the self-cleavage stood at 0.877. For A13G U43A, the self-cleavage is 0.617. A13G A23G: the self-cleavage is 0.804. As for A13G A23U, the self-cleavage worked out at 0.997. With A13C U55G, the self-cleavage is 0.322. For A13C U55A, the self-cleavage came to 0.315. For the variant A13U U26C, the self-cleavage stood at 0.422. As to A13U U26G, the self-cleavage worked out at 0.287. With A13U U26A, the self-cleavage was 0.626. For A13G U36G, the self-cleavage is 0.227. In the case of A13C U20G, the self-cleavage was 0.089. On to A13C U36A, for which the self-cleavage is 0.175. In the case of A13C U36G, the self-cleavage is 0.201. Take C12U A23C: the self-cleavage worked out at 0.93. Turning to A13U C54G, the self-cleavage amounted to 0.419.

For C12A U46A, the self-cleavage came to 0.804.

As for A13C A15C, the self-cleavage turned out to be 0.264. Under A13C A15U stands 0.145; under A13G U26A, 0.767; under C12U A60U, 0.374.

As for A13G C18U, the self-cleavage was determined as 0.382. For the variant A13C G37C, the self-cleavage worked out at 0.156. For A13C U53C, the self-cleavage was 0.352. On to A13C U53G, for which the self-cleavage came out at 0.63.

Take C12G G56A: the self-cleavage came to 0.741. With C12G G56U, the self-cleavage stood at 0.544. For the variant A13U C57A, the self-cleavage is 0.194. For the variant C12U G19U, the self-cleavage stood at 0.339. C12G C29G: the self-cleavage is 0.152. As to A13C G25A, the self-cleavage was determined as 0.129. On to A13C G25U, for which the self-cleavage stood at 0.104. Under C12G G48C stands 0.949; under C12G A40C, 0.318. Consider A13G C45G, for which the self-cleavage came out at 0.847. For the variant C12U C22A, the self-cleavage was found to be 0.2. Take C12U A52U: the self-cleavage is 0.952. Under C12U A15C stands 0.389; under C12G U61C, 0.282; under A13C C45U, 0.876. Take C12A C45U: the self-cleavage is 0.72.

Turning to A13G A52U, the self-cleavage was found to be 0.989. For A13G U46C, the self-cleavage came out at 0.927. For the variant A13C C39A, the self-cleavage was found to be 0.372. Take A13C C39G: the self-cleavage was 0.538. A13C G17U: the self-cleavage worked out at 0.125. For A13C C24G, the self-cleavage is 0.0828.

A13U C27U: the self-cleavage turned out to be 0.134.

As to A13U C27G, the self-cleavage stood at 0.155.

As to C12U, the self-cleavage was 0.996. For C12G, the self-cleavage came to 0.92.

For the variant A13U A42C, the self-cleavage came out at 0.586. Under C12A G30C stands 0.194; under A13C U64C, 0.614; under A13G A40C, 0.306.

As for C12G U67C, the self-cleavage is 0.917. As to C12A U53C, the self-cleavage stood at 0.232. Consider A13C, for which the self-cleavage was 0.913. Regarding A13G, the self-cleavage is 0.97. For the variant A13U, the self-cleavage was determined as 0.888.

For the variant C12A G41A, the self-cleavage amounted to 0.213. With C12G G19A, the self-cleavage turned out to be 0.137. Consider C12G G19C, for which the self-cleavage was 0.0934.

Turning to C12G G19U, the self-cleavage is 0.0842. Then A13U C24G, with 0.127; and C12G C33U, with 0.405.

With A13G A51G, the self-cleavage came out at 0.843. Take A13G A51U: the self-cleavage was found to be 0.905. With A13G U61A, the self-cleavage amounted to 0.834. Under A13U U20A stands 0.0602. Turning to C12A A60C, the self-cleavage came to 0.264. As for A13G C66A, the self-cleavage is 0.295. On to A13G C66U, for which the self-cleavage worked out at 0.756. In the case of C12A U38C, the self-cleavage is 0.516. Take C12A U38A: the self-cleavage came out at 0.493.

As for C12A C29A, the self-cleavage came to 0.121.

In the case of C12U G58C, the self-cleavage was found to be 1.01.

Consider C12U G56C, for which the self-cleavage came out at 0.554.

On to C12U G56U, for which the self-cleavage came to 0.802. Consider C12G G68A, for which the self-cleavage amounted to 0.972.

Consider C12G G68C, for which the self-cleavage came to 0.832. On to C12U U21C, for which the self-cleavage amounted to 0.9. With C12U U38A, the self-cleavage is 0.88. As for A13G G65C, the self-cleavage came to 0.345. With A13G G65A, the self-cleavage turned out to be 0.653. C12U C24G: the self-cleavage is 0.316. Then C12U C24A, with 0.713; and C12U C24U, with 0.805. For C12U U43A, the self-cleavage amounted to 0.868. Consider A13U G28U, for which the self-cleavage worked out at 0.165.

For C12G G14U, the self-cleavage is 0.118. Then C12G G14C, with 0.0732. With C12G G14A, the self-cleavage was determined as 0.127. In the case of C12A C34U, the self-cleavage worked out at 0.834. As for A13U C35U, the self-cleavage turned out to be 0.826.

As for A13U C35A, the self-cleavage was 0.197. C12U C57U: the self-cleavage is 0.317. As to A13C C29G, the self-cleavage turned out to be 0.141. For the variant C12A G25U, the self-cleavage turned out to be 0.1. As for C12A G25A, the self-cleavage is 0.155. Then C12A U49C, with 0.73. With C12A U64C, the self-cleavage worked out at 0.58. As for C12A U64A, the self-cleavage stood at 0.582. Then C12A U26G, with 0.447.
